Source: the supplement of paper PMC9112550, “Optimization of the antimicrobial peptide Bac7 by deep mutational scanning” (BMC Biology, 2022)

Tested on: Escherichia coli TOP10
Test: shrunken log2 fold change of peptide-encoding DNA abundance (4.5 h post-induction vs induction); higher = less antimicrobial activity (less host growth inhibition)
Conditions: time post-induction: 4.5 h; library: site-saturation at positions 5, 18, 19, 20
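Note: peptides expressed intracellularly from a pBAD plasmid library in pooled LB shake-flask culture, induced with 0.3% L-arabinose, DNA abundance read by NGS, three biological replicates, DESeq2 with apeglm shrinkage.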

Sequence	shrunken log2 fold change
RRIRQRPPRLPRPRPRPSTWPRP	-0.116
RRIRQRPPRLPRPRPRPSYAPRP	0.0242
RRIRQRPPRLPRPRPRPTAAPRP	0.933
RRIRQRPPRLPRPRPRPTCLPRP	-0.108
RRIRQRPPRLPRPRPRPTCMPRP	-0.163
RRIRQRPPRLPRPRPRPTDLPRP	0.0327
RRIRQRPPRLPRPRPRPTFLPRP	-0.358
RRIRQRPPRLPRPRPRPTFNPRP	-0.201
RRIRQRPPRLPRPRPRPTHKPRP	0.0649
RRIRQRPPRLPRPRPRPTHRPRP	-0.000309
RRIRQRPPRLPRPRPRPTICPRP	-0.114
RRIRQRPPRLPRPRPRPTIYPRP	-0.552
RRIRQRPPRLPRPRPRPTKHPRP	-0.167
RRIRQRPPRLPRPRPRPTKIPRP	-0.13
RRIRQRPPRLPRPRPRPTMFPRP	-0.208
RRIRQRPPRLPRPRPRPTNPPRP	-0.175
RRIRQRPPRLPRPRPRPTPPPRP	0.537
RRIRQRPPRLPRPRPRPTRWPRP	0.561
RRIRQRPPRLPRPRPRPTSCPRP	-0.0676
RRIRQRPPRLPRPRPRPTSGPRP	-0.0104
RRIRQRPPRLPRPRPRPTSTPRP	-0.0784
RRIRQRPPRLPRPRPRPTTAPRP	-0.00139
RRIRQRPPRLPRPRPRPTTIPRP	-0.116
RRIRQRPPRLPRPRPRPTVPPRP	-0.0488
RRIRQRPPRLPRPRPRPTWKPRP	0.00778

Sequence	shrunken log2 fold change
RRIRQRPPRLPRPRPRPTWTPRP	-0.0772
RRIRQRPPRLPRPRPRPTWVPRP	2.03
RRIRQRPPRLPRPRPRPTYFPRP	-0.0458
RRIRQRPPRLPRPRPRPTYGPRP	-0.293
RRIRQRPPRLPRPRPRPTYHPRP	-0.184
RRIRQRPPRLPRPRPRPVCCPRP	0.161
RRIRQRPPRLPRPRPRPVCDPRP	0.0934
RRIRQRPPRLPRPRPRPVDCPRP	-0.013
RRIRQRPPRLPRPRPRPVDGPRP	-0.13
RRIRQRPPRLPRPRPRPVEMPRP	-0.101
RRIRQRPPRLPRPRPRPVFYPRP	-0.147
RRIRQRPPRLPRPRPRPVHGPRP	-0.0392
RRIRQRPPRLPRPRPRPVKPPRP	-0.00215
RRIRQRPPRLPRPRPRPVLFPRP	0.166
RRIRQRPPRLPRPRPRPVMTPRP	-0.172
RRIRQRPPRLPRPRPRPVNIPRP	0.0209
RRIRQRPPRLPRPRPRPVQCPRP	-0.16
RRIRQRPPRLPRPRPRPVQDPRP	-0.0297
RRIRQRPPRLPRPRPRPVSEPRP	-0.202
RRIRQRPPRLPRPRPRPVSVPRP	0.028
RRIRQRPPRLPRPRPRPVTDPRP	0.05
RRIRQRPPRLPRPRPRPVWDPRP	-0.104
RRIRQRPPRLPRPRPRPVWHPRP	0.0663
RRIRQRPPRLPRPRPRPWCDPRP	-0.191
RRIRQRPPRLPRPRPRPWDDPRP	-0.00146

Sequence	shrunken log2 fold change
RRIRQRPPRLPRPRPRPWELPRP	0.0585
RRIRQRPPRLPRPRPRPWILPRP	-0.00158
RRIRQRPPRLPRPRPRPWKQPRP	-0.08
RRIRQRPPRLPRPRPRPWKYPRP	-0.149
RRIRQRPPRLPRPRPRPWMIPRP	0.0219
RRIRQRPPRLPRPRPRPWMSPRP	-0.0167
RRIRQRPPRLPRPRPRPWMTPRP	-0.00186
RRIRQRPPRLPRPRPRPWNRPRP	0.013
RRIRQRPPRLPRPRPRPWPAPRP	0.0128
RRIRQRPPRLPRPRPRPWQMPRP	-0.0417
RRIRQRPPRLPRPRPRPWQYPRP	-0.366
RRIRQRPPRLPRPRPRPWRAPRP	0.0749
RRIRQRPPRLPRPRPRPWSEPRP	-0.266
RRIRQRPPRLPRPRPRPWSSPRP	-0.0435
RRIRQRPPRLPRPRPRPWSVPRP	-0.0201
RRIRQRPPRLPRPRPRPWTCPRP	0.0112
RRIRQRPPRLPRPRPRPWVGPRP	-0.0518
RRIRQRPPRLPRPRPRPWWPPRP	-0.119
RRIRQRPPRLPRPRPRPWYRPRP	-0.49
RRIRQRPPRLPRPRPRPYAKPRP	-0.122
RRIRQRPPRLPRPRPRPYATPRP	-0.326
RRIRQRPPRLPRPRPRPYCRPRP	-0.00101
RRIRQRPPRLPRPRPRPYESPRP	-0.261
RRIRQRPPRLPRPRPRPYFSPRP	-0.451
RRIRQRPPRLPRPRPRPYGCPRP	-0.00141

Sequence	shrunken log2 fold change
RRIRQRPPRLPRPRPRPYIGPRP	-0.681
RRIRQRPPRLPRPRPRPYKEPRP	-0.0137
RRIRQRPPRLPRPRPRPYLSPRP	0.00493
RRIRQRPPRLPRPRPRPYNEPRP	-0.184
RRIRQRPPRLPRPRPRPYNSPRP	-0.198
RRIRQRPPRLPRPRPRPYQTPRP	-0.421
RRIRQRPPRLPRPRPRPYSGPRP	-0.126
RRIRQRPPRLPRPRPRPYTDPRP	-0.209
RRIRQRPPRLPRPRPRPYTVPRP	-0.104
RRIRQRPPRLPRPRPRPYVAPRP	-0.713
RRIRQRPPRLPRPRPRPYVRPRP	-0.216
RRIRRRPPRLPRPRPRPADPPRP	0.403
RRIRRRPPRLPRPRPRPADRPRP	0.00311
RRIRRRPPRLPRPRPRPAEMPRP	0.219
RRIRRRPPRLPRPRPRPAGRPRP	0.41
RRIRRRPPRLPRPRPRPAILPRP	-0.017
RRIRRRPPRLPRPRPRPAKWPRP	0.123
RRIRRRPPRLPRPRPRPAMFPRP	0.372
RRIRRRPPRLPRPRPRPAPGPRP	0.812
RRIRRRPPRLPRPRPRPAQCPRP	0.152
RRIRRRPPRLPRPRPRPAQFPRP	0.135
RRIRRRPPRLPRPRPRPASAPRP	0.227
RRIRRRPPRLPRPRPRPASPPRP	0.314
RRIRRRPPRLPRPRPRPATHPRP	0.434
RRIRRRPPRLPRPRPRPATMPRP	0.876

Sequence	shrunken log2 fold change
RRIRRRPPRLPRPRPRPAVEPRP	-0.0125
RRIRRRPPRLPRPRPRPAVSPRP	-0.136
RRIRRRPPRLPRPRPRPCAAPRP	0.743
RRIRRRPPRLPRPRPRPCAMPRP	-0.0039
RRIRRRPPRLPRPRPRPCCVPRP	0.415
RRIRRRPPRLPRPRPRPCDIPRP	0.181
RRIRRRPPRLPRPRPRPCIGPRP	-0.328
RRIRRRPPRLPRPRPRPCKSPRP	0.263
RRIRRRPPRLPRPRPRPCLAPRP	0.242
RRIRRRPPRLPRPRPRPCMCPRP	-0.382
RRIRRRPPRLPRPRPRPCQSPRP	0.0448
RRIRRRPPRLPRPRPRPCQYPRP	-0.137
RRIRRRPPRLPRPRPRPCRDPRP	0.0656
RRIRRRPPRLPRPRPRPCRRPRP	0.0946
RRIRRRPPRLPRPRPRPCRVPRP	0.0136
RRIRRRPPRLPRPRPRPCSCPRP	-0.017
RRIRRRPPRLPRPRPRPCSFPRP	-0.0171
RRIRRRPPRLPRPRPRPCVLPRP	-0.027
RRIRRRPPRLPRPRPRPCVMPRP	0.113
RRIRRRPPRLPRPRPRPCWHPRP	-0.0148
RRIRRRPPRLPRPRPRPCWMPRP	0.415
RRIRRRPPRLPRPRPRPCYHPRP	-0.169
RRIRRRPPRLPRPRPRPDCGPRP	0.16
RRIRRRPPRLPRPRPRPDCWPRP	0.676
RRIRRRPPRLPRPRPRPDDCPRP	0.279

Sequence	shrunken log2 fold change
RRIRRRPPRLPRPRPRPDEYPRP	-0.0588
RRIRRRPPRLPRPRPRPDGIPRP	0.282
RRIRRRPPRLPRPRPRPDHTPRP	-0.447
RRIRRRPPRLPRPRPRPDIDPRP	0.0367
RRIRRRPPRLPRPRPRPDLMPRP	2.63
RRIRRRPPRLPRPRPRPDMNPRP	-0.00608
RRIRRRPPRLPRPRPRPDNFPRP	0.028
RRIRRRPPRLPRPRPRPDNHPRP	-0.215
RRIRRRPPRLPRPRPRPDPGPRP	-0.0599
RRIRRRPPRLPRPRPRPDSFPRP	-0.0228
RRIRRRPPRLPRPRPRPDSMPRP	-0.251
RRIRRRPPRLPRPRPRPDSSPRP	-0.118
RRIRRRPPRLPRPRPRPDVEPRP	0.0547
RRIRRRPPRLPRPRPRPDVHPRP	-0.101
RRIRRRPPRLPRPRPRPDVLPRP	0.0203
RRIRRRPPRLPRPRPRPDVSPRP	-0.0463
RRIRRRPPRLPRPRPRPDVYPRP	-0.0445
RRIRRRPPRLPRPRPRPDYGPRP	-0.28
RRIRRRPPRLPRPRPRPEASPRP	0.75
RRIRRRPPRLPRPRPRPEDRPRP	-0.154
RRIRRRPPRLPRPRPRPEECPRP	0.00164
RRIRRRPPRLPRPRPRPEEMPRP	1.38
RRIRRRPPRLPRPRPRPEFMPRP	0.377
RRIRRRPPRLPRPRPRPEFPPRP	0.154
RRIRRRPPRLPRPRPRPEGFPRP	0.151
